Usually IC50 stands for the midpoint of a concentration-inhibition curve. High values mean weaker potency in that assay, low ones greater potency in that assay.

16 molecules from US7057012 (dated 2006) can be followed below.

The assay has as its target human PTH-2 receptor (human, UniProt P49190 25-550). Kind of assay: competition binding vs 125I-rPTH(1-34), COS-7 cells.

Chain of human PTH-2 receptor (P49190 25-550): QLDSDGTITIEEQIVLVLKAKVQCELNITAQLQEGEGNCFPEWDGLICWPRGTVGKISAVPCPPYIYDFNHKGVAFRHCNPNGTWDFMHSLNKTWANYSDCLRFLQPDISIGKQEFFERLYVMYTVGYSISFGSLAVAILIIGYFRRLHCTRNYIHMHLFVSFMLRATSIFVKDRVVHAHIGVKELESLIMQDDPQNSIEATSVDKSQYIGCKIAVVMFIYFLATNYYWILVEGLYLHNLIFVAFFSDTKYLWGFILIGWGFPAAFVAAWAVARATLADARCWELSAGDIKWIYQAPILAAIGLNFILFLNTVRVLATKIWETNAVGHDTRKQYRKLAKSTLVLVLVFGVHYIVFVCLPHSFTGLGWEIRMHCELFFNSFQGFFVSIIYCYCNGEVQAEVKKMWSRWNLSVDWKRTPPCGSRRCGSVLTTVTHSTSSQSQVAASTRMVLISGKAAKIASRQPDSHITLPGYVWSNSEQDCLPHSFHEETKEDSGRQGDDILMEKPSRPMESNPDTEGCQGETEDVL

B1: PTH(17-31) 17 Ser→Ala (peptide)
chain: AMERVEWLRKKLQDV
B1: the IC50 was determined as 1500 nM.

B2: PTH(17-31) 28 Leu→Ala (peptide)
chain: SMERVEWLRKKAQDV
In the case of B2, the IC50 is 9900 nM.

B3: PTH(17-31) 23 Trp→Ala (peptide)
chain: SMERVEALRKKLQDV
In turn, B3 had a concentration for half-maximal inhibition (IC50) of more than 100000 nM.

B4: PTH(17-31) 24 Leu→Ala (peptide)
chain: SMERVEWARKKLQDV
In turn, B4 registered an IC50 of 67500 nM.

B5: PTH(17-31) 29 Gln→Ala (peptide)
chain: SMERVEWLRKKLADV
As to B5, the IC50 turned out to be 900 nM.

B6: PTH(17-31) (peptide)
peptide: SMERVEWLRKKLQDV
On to B6, for which the IC50 was found to be 1000 nM.

B7: PTH(17-31) 20 Arg→Ala (peptide)
chain: SMEAVEWLRKKLQDV
With B7, the 50% inhibitory concentration (IC50) was 90500 nM.

B8: PTH(17-31) 27 Lys→Ala (peptide)
chain: SMERVEWLRKALQDV
As for B8, the IC50 came out at 1100 nM.

B9: PTH(17-31) 30 Asp→Ala (peptide)
chain: SMERVEWLRKKLQAV
B9 displayed a half-inhibitory concentration (IC50) of 1100 nM.

B10: PTH(17-31) 25 Arg→Ala (peptide)
chain: SMERVEWLAKKLQDV
In the case of B10, the half-inhibitory concentration (IC50) turned out to be 3800 nM.

B11: PTH(17-31) 21 Val→Ala (peptide)
chain: SMERAEWLRKKLQDV
Consider B11, for which the IC50 was 1700 nM.

B12: PTH(17-31) 18 Met→Ala (peptide)
chain: SAERVEWLRKKLQDV
In turn, B12 displayed an IC50 of 1500 nM.

B13: PTH(17-31) 31 Val→Ala (peptide)
chain: SMERVEWLRKKLQDA
On to B13, for which the half-inhibitory concentration (IC50) came out at 3800 nM.

B14: PTH(17-31) 19 Glu→Ala (peptide)
chain: SMARVEWLRKKLQDV
In turn, B14 came in with an IC50 of 700 nM.

B15: PTH(17-31) 26 Lys→Ala (peptide)
chain: SMERVEWLRAKLQDV
In turn, B15 returned an IC50 of 8300 nM.

B16: PTH(17-31) 22 Glu→Ala (peptide)
chain: SMERVAWLRKKLQDV
With B16, the half-inhibitory concentration (IC50) worked out at 600 nM.
